Measured values reported in patent publication US20240018513A1, “SYNTHETIC INTRONS FOR TARGETED GENE EXPRESSION” (FRED HUTCHINSON CANCER CENTER, priority 2020, published 2024).

Key:
Format in all cases: cell-based
[1] = tested on: SF3B1-mutant K562 cells; assay: Mini-screen: pooled synthetic intron mini-library in HSV-TK, GCV treatment, full-length intron sequencing from genomic DNA; conditions: genotype K700E (SF3B1+/K700E) K562; GCV 100 ug/mL; day 6; vector hPGK-PuroR-P2A-HSV-TK
From the text: (§1) Therefore, a massively parallel splicing assay was developed to map and functionally interrogate key sequence features within the synthetic intron. First, a pilot mini-library of eight synthetic introns was synthesized, seven of which were much shorter (lengths of 100-158 nt) than the parent synthetic intron (synMTERFD3i1-250), and each with one or more perturbations to potentially critical features (FIG. 2E). This mini-library was cloned into HSV-TK, introduced into WT or SF3B1-mutant K562 cells with a lentiviral vector at a low multiplicity of infection, and treated with GCV. Relative depletion of each construct was measured by high-throughput sequencing of the entire introns from genomic DNA after six days of treatment (TABLE 1).
(§2) Each synthetic intron used in the mini-library was ordered individually as a gBlock (Integrated DNA Technologies), consisting of the desired intron flanked by homology arms for cloning (5′ arm: […] (SEQ ID NO:158); 3′ arm: […] (SEQ ID NO:159; TABLE 3). The gBlocks were then mixed in equal proportions before being cloned into hPGK-PuroR-P2A-HSV-TK using a previously published strategy for pooled cloning (Thomas, J. D. et al. RNA isoform screens uncover the essentiality and tumor-suppressor activity of ultraconserved poison exons. Nature genetics 52, 84-94 (2020), incorporated herein by reference in its entirety). This intron mix was then amplified using NEBNext High Fidelity Ready Mix (New England Biolabs) and purified using 1.8×AMPure XP SPRI beads (Beckman Coulter). The backbone for the library was amplified using Q5 polymerase (New England Biolabs). The library was transformed and amplified using Endura ElectroCompetent Cells (Lucigen, 60242-2) and large LB plates. The library was maxiprepped using a Macherey-Nagel MaxiPrep kit (Thermo Fisher Scientific, Cat 740414.10).
(§3) WT or SF3B1-mutant K562 cells were infected with lentivirus encoding the mini-library at an MOI of 0.3 and untreated or treated with GCV (100 ug/mL) for 6 days. Genomic DNA was collected at day 6 and the resulting Illumina libraries were sequenced with 2×150 bp reads (Illumina MiSeq). Depletion/enrichment of each construct was estimated as follows. For each sample, reads were normalized to the total reads mapped. The relative fraction of reads mapping to each intron was then estimated by dividing the numbers of normalized reads mapped to an intron by the total reads mapped in the sample. The standard deviation was calculated using the sample proportion P for each intron (σ=sqrt [P(1−P)/n]). A fold-change was calculated for each intron by dividing the proportion of the intron in the treated GCV samples by the fraction of the intron in the untreated samples. Error propagation was used to estimate the standard deviation. The final relative fold-changes were computed by normalizing fold-changes such that the fold-change of synMTERFD3i1-250 in the pilot screen was identical to the experimentally measured fold-change in a single-construct experiment (FIG. 2C, 100 μg/mL of GCV).

[2] = tested on: WT K562 cells; assay: as above; conditions: genotype WT (SF3B1+/+) K562; GCV 100 ug/mL; day 6; vector hPGK-PuroR-P2A-HSV-TK
From the text: as §1, §2, §3

[3] = tested on: MEL202 cells (SF3B1R625G); assay: RT-PCR of synthetic intron excision in uveal melanoma cells; conditions: endogenous SF3B1R625G
From the text: FIGS. 9A-9H: Branchpoint manipulation and combinatorial 3′ss mutations enhance SF3B1 mutation-dependent splicing. (9A) Diagrams of modifications in each intron relative to synMTERFD3i1-150. Deletions are specified as open intervals. Branchpoints were inserted in between the indicated positions. (9B) Relative viability of K562 cells expressing the indicated constructs, measured in the full screen. Relative viability estimated as fold-change in representation of each construct, measured by full-length intron sequencing from genomic DNA, at day 8 for GCV-treated relative to untreated samples. GCV concentration, 100 ug/mL. Vector is hPGK-PuroR-P2A-HSV-TK. Data represented as mean±s.d. Standard deviation was estimated as sample proportion standard deviation. (9C) Relative viability of K562 cells expressing the indicated constructs, measured in cells expressing each construct individually. […] Relative viability measured by ATP after 11 days of treatment and normalized to PBS-treated samples. […]
Total RNA was extracted using Direct-zol RNA Miniprep (Zymo Research). cDNA was synthesized using Superscript IV Reverse Transcriptase (Thermo Fisher Scientific) using the manufacturer's protocol. Amplicons were analyzed using agarose gel electrophoresis and quantified using ImageJ (Fiji). […]

B1: intron_26: 150 nt MTERFD3 intron 1-derived synthetic intron, deletion 25to125; SEQ ID NO 58/66 (nucleic acid)
DNA 1: GTGAGTCGCCCCCTTCCTCTGCTCCGAGAGGGAAATGGGAATTAGGGTGGTGGCAGAGCCCAAAGAGGCCTTGTAGGCCATGGTAAGGCATTTCTATGTTTTATTTTACTTTGTCTTTATCCTAAAATGCCATTGGCAAGTTTATTGCAG
DNA 2: GTGAGTCGCCCCCTTCCTCTGCTCCGAGAGGGAAATGGGAATTAGGGTGGTGGCAGAGCCCAAAGAGGCCTTGTAGGCCATGGTAAGGCATTTCTATGTTTTATTTTACTTTGTCTTTATCCTAAAATGCCATTGGCAAGTTTATTGCAG
[1]
  fold-change (estimated fold-change in intron abundance in gDNA): 0.282
[2]
  fold-change (estimated fold-change in intron abundance in gDNA): 1.034
[3]
  excision / splicing of the synthetic intron (RT-PCR): excised in the context of endogenous SF3B1R625G, although less efficiently than for SF3B1K700E
